From PMC11914429, “Reprograming of the ubiquitin ligase Ubr1 by intrinsically disordered Roq1 through cooperating multifunctional motifs” (The EMBO Journal, 2025)

T1: FLAG-Ubr1, P19812
T1 chain: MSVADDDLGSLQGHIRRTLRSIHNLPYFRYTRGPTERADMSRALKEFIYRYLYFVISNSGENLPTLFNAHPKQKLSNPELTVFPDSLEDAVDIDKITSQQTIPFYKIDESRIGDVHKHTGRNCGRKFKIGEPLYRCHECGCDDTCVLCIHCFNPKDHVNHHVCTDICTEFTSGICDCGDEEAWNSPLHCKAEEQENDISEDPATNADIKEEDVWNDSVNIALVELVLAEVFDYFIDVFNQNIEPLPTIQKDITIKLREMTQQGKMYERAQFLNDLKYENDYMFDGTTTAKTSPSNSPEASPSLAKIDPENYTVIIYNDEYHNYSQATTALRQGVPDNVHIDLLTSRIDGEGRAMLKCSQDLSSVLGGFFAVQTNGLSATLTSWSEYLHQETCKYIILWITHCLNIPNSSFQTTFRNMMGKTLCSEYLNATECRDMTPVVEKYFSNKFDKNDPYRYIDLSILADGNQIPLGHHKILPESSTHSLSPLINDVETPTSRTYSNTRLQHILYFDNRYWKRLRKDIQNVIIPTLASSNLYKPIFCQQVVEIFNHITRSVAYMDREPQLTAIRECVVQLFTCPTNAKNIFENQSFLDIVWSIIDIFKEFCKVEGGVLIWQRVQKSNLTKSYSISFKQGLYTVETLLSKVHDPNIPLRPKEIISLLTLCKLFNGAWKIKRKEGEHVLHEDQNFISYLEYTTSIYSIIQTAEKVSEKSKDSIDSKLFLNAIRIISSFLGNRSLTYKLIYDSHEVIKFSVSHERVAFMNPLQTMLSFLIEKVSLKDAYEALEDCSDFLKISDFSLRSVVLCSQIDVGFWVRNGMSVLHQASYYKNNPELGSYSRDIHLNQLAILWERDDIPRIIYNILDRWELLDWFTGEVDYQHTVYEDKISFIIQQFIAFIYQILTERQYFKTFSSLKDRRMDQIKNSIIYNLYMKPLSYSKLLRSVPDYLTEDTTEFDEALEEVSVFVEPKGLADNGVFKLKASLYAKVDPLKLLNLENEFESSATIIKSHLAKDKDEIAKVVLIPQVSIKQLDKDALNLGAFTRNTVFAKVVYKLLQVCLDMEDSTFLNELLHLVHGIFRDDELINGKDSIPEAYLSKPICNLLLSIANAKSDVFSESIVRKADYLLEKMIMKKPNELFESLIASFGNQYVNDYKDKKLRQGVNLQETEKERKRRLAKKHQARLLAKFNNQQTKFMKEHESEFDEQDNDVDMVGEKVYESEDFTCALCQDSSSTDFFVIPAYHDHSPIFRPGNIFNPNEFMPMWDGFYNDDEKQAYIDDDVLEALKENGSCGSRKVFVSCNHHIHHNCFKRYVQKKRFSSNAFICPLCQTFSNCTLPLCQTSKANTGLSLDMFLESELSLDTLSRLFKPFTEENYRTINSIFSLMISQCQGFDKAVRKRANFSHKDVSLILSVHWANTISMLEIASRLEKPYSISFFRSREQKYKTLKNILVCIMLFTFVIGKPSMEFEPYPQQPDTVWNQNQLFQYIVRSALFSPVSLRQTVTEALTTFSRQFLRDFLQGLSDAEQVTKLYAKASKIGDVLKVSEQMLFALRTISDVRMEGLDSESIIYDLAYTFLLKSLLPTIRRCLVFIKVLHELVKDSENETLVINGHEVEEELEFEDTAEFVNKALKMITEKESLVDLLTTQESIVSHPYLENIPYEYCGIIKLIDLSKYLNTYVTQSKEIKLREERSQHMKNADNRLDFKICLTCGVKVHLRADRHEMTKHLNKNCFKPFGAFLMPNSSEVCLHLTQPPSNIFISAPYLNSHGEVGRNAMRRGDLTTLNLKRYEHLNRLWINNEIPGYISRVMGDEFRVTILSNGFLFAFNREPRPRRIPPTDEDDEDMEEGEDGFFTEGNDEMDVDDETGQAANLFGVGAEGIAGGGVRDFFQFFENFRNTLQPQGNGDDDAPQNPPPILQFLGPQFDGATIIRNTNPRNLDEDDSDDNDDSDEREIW


Legend:
[1] = molecular target: T2, FLAG-Ubr1 (S. cerevisiae, UniProt P19812 1-1950); experiment: BLI; biotinylated Rad6 immobilised on streptavidin biosensors, 100 nM soluble Ubr1, without or with 200 nM or 1 µM Roq1(22-104); essentially irreversible, only association analysed; details: both partners purified
T2 construct: ubiquitin ligase Ubr1 of yeast; single subunit of about 200 kDa, nearly 2000 residues; The purified protein comes from a strain with ubr1::nat-PGPD-FLAG-UBR1, so probably the whole protein; source: protease-deficient yeast expressing FLAG-Ubr1 (SSY2908), purified (anti-FLAG agarose, eluted with FLAG peptide); roq1 knockout yeast expressing FLAG-Ubr1, in lysate; not shown: FLAG, N-terminal, kept

[2] = molecular target: T1, FLAG-Ubr1, P19812; experiment: biolayer interferometry; details: chain shown with the change; 50 nM Ubr1, association step 5 min; value read at end of association (300 s); 50 mM HEPES, 150 mM NaCl, 10 mM MgCl2, 0.05% Tween-20, 0.02% BSA; parent: est. 4.5; read off a plot

Row | binding result [1] | response [2] | Binder
1 | binds |  | Rad6 (enzyme, UniProt P06104 1-172, looked up, biotin (amino-reactive NHS-PEG4-Biotin), ubiquitin-conjugating enzyme Rad6, not conjugated to ubiquitin; The plasmid pCA528-Rad6 was a gift (Axel Mogk); It is probably the yeast protein; also called unloaded Rad6; source: E. coli BL21(DE3), purified (His6-SUMO removed with Ulp1, SEC); not shown: His6-SUMO, N-terminal, cleaved) MSTPARRRLMRDFKRMKEDAPPGVSASPLPDNVMVWNAMIIGPADTPYEDGTFRLLLEFDEEYPNKPPHVKFLSEMFHPNVYANGEICLDILQNRWTPTYDVASILTSIQSLFNDPNPASPANVEAATLFKDHKSQYVKRVKETVEKSWEDDMDDMDDDDDDDDDDDDDEAD
2 |  | 0 nm | Roq1(22-104) R22A; Y55A; Y56A; F57A; V58A (protein) ASQRDQTRVDSLVEESPMGDFGINNQPTQPGVIAAAAELTNLGIQENTSSNNNNNNNHGDDENGSRYGHGSSLGGDVHSRRCS
3 |  | 0.5 nm | Roq1(22-104) R22A (protein) ASQRDQTRVDSLVEESPMGDFGINNQPTQPGVIYYFVELTNLGIQENTSSNNNNNNNHGDDENGSRYGHGSSLGGDVHSRRCS
4 |  | 2 nm | Roq1(22-104) Y55A; Y56A; F57A; V58A (protein) RSQRDQTRVDSLVEESPMGDFGINNQPTQPGVIAAAAELTNLGIQENTSSNNNNNNNHGDDENGSRYGHGSSLGGDVHSRRCS
